Kd data for four sequences are collected here from paper PMC6297230, “Structural basis of meiotic telomere attachment to the nuclear envelope by MAJIN-TERB2-TERB1” (Nature Communications, 2018).

What all share (assay): EMSA
What all share (settings): apparent, Hill fit; EMSA: 20 mM Tris pH 8.0, 250 mM KCl, 1 h at 4 °C, 3% glycerol, 0.5% agarose in 0.5x TBE; 25 nM FAM-DNA for Kd (protein as oligomer), 0.3 uM DNA for display

Data set [1] concerns the target MAJIN Core;TERB2 C (human;human) (UniProt Q3KP22+Q8NHR7).
Data set [2] deals with MAJIN Core;TERB2 full length;TERB1 TRFB (human;human;human) (UniProt Q3KP22+Q8NHR7+Q8NA31).
Data set [3] addresses MAJIN dTM;TERB2 C (human;human) (UniProt Q3KP22+Q8NHR7).
The target in data set [4] is MAJIN dTM;TERB2 C-Tr (human;human) (UniProt Q3KP22+Q8NHR7).
Sequence of MAJIN dTM;TERB2 C-Tr (human;human) (Q3KP22 whole entry, chain 1 of 2): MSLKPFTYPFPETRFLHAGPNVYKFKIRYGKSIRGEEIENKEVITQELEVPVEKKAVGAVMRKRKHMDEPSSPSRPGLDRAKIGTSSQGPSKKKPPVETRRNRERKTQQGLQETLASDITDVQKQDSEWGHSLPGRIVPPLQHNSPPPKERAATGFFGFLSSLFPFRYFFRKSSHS
Sequence of MAJIN dTM;TERB2 C-Tr (human;human) (Q8NHR7 168-207, chain 2 of 2): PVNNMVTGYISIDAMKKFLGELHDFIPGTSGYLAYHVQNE

Sequence of MAJIN Core;TERB2 C (human;human) (Q3KP22 whole entry, chain 1 of 2): as the sequence (Q3KP22 whole entry, chain 1 of 2) above
Sequence of MAJIN Core;TERB2 C (human;human) (Q8NHR7 168-220, chain 2 of 2): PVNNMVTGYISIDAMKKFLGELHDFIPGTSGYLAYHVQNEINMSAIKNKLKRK
Sequence of MAJIN Core;TERB2 full length;TERB1 TRFB (human;human;human) (Q3KP22 whole entry, chain 1 of 3): as the sequence (Q3KP22 whole entry, chain 1 of 2) above
Sequence of MAJIN Core;TERB2 full length;TERB1 TRFB (human;human;human) (Q8NHR7 whole entry, chain 2 of 3): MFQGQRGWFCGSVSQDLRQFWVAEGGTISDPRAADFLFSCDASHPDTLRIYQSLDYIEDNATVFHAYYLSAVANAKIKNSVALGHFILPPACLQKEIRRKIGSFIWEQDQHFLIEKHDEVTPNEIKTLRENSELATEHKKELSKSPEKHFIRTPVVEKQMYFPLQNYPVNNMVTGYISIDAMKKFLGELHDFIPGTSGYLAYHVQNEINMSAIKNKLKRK
Sequence of MAJIN Core;TERB2 full length;TERB1 TRFB (human;human;human) (Q8NA31 561-658, chain 3 of 3): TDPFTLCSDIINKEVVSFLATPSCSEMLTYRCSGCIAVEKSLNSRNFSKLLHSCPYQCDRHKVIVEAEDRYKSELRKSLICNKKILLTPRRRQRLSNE
Sequence of MAJIN dTM;TERB2 C (human;human) (Q3KP22 whole entry, chain 1 of 2): as the sequence (Q3KP22 whole entry, chain 1 of 2) above
Sequence of MAJIN dTM;TERB2 C (human;human) (Q8NHR7 168-220, chain 2 of 2): as the sequence (Q8NHR7 168-220, chain 2 of 2) above

With “AATTCTCATTTTACTTACCGGACGCTATTAGCAGTGGCAGATTGTACTGAGAGTGCACCATATGCGGTGTGAAATACCGCACAGATGCGT [Random ssDNA (90 nt)]”, in data set [1], the Kd turned out to be 900 nM.

Turning to “TTAGGGTTAGGGTTAGGGTTAGGGTTAGGGTTAGGGTTAGGGTTAGGGTTAGGGCGACGACCCTAACCCTAACCCTAACCCTAACCCTAACCCTAACCCTAACCCTAACCCTAA [Telomeric hairpin DNA (54 bp)]”, the Kd in data set [1] was found to be 610 nM.

“TTTTTTTTTTTTTTTTTTTTTTTTTTTTTTTTTTTTTTTTTTTTTTTTTTTTTTTTTTTTTTTTTTTTTTTTTTTTTTTTTTTTTTTTTTTTTTTTTTTT [Poly(dT) (100 nt)]”: the Kd in data set [1] was found to be 510 nM.

As for “TTCCAGGGTTCCATGGAGATAAAGGTCAATAAATTAGAGTTAGAACTAGAAAGTGCCAAACAGAAATTTGGAGAAATCACAGACACCTATCAGAAAGAAATTGAGGACAAAAAGATATCAGAATAATAACCATGGATATCGAATT (double strand) [FAM random dsDNA (145 bp)]”, the Kd in data set [1] turned out to be 550 nM; in data set [2], 460 nM; in data set [3], 120 nM; in data set [4], 200 nM.
